In test [1] the test system is BM cells. Description: Step 2 culture: DC maturation and IL-12 production upon CpG+LPS after Step 1 conditioning. The class given is cell-based, mouse. The note with it: for Step 2 response to TLR agonists (DC maturation) after Step 1 conditioning: CpG+LPS stimulation. An excerpt:
Following Step 1 conditioning, BM cultures were washed thoroughly and exposed to TLR agonists to test the cells' potential for DC maturation and IL-12 production during Step 2 culture. Since TLR9 and TLR4 were invariably expressed by mouse BM cells at the end of Step 1 cultures (not shown), we standardly employed CpG (ODN 1826) and lipopolysaccharide (LPS) to stimulate coordinate activation of MyD88 and TRIF pathways (Napolitani, G. et al. Nat. Immunol. 6, 769-776 (2005)).
(§1) Step 2 was initiated (0 hr) in CM, rmGMCSF and optionally rmIL4. Step 2 cultures were performed in 24 well cluster plates, 4 million BM cells per well in 2 ml CM. DC1 polarization stimuli such as CpG (ODN 1826, 5 μM) and LPS 50 ng/ml were added between 18-24 hrs, and cells harvested at 40-44 hrs for analyses. When included, immunosuppressive agents rmIL10, rmVEGF, rhTGFβ1 or PGE2 were added between 0 and 24 hrs of Step 2 culture at doses specified in Results. Alternatively, particulate tumor cells, either viable unirradiated, viable irradiated (10,000 cGy), or killed freeze-thawed lysate (Cohen, P A et al. Cancer Res. 54, 1055-1058 (1994)), were added to Step 2 BM cells. Viable tumor cells were sometimes labelled with CFSE (Molecular Probes, Eugene, Oreg.) to allow their identification and exclusion during subsequent FACS analyses (Peng, L. et al. J. Immunol. 169, 4811-4821 (2002)).
For routine multicolor FACS analyses, BM cells were cultured in anti-CD32 mAb plus normal mouse IgG to block FcRs, then directly stained with conjugated specific mAbs or isotype controls as listed in the figures (BD-Pharmingen, Mountain View, Calif.) (Peng, L. et al. J. Immunol. 165, 5738-5749 (2000)). When additionally assessing IL12 production at the cellular level, the last 16 hrs of Step 2 culture were performed in monensin (Golgistop™, BD-PharMingen). Then, following FcR block and direct staining of surface molecules, cells were fixed in formalin and permeabilized in tween (CytoPerm/CytoFix™, PharMingen), then additionally stained with PE-anti-mouse IL12p40 (BD-Pharmingen) or isotype control.
Assessments of supernatant contents of mIL12p70 heterodimer were performed with BD-Pharmingen reagents. mIFNα and mIFNβ ELISAs were performed with kits from PBL Biomedical Laboratories (New Brunswick, N.J.).

The next test deals with L-selectin^low T cells. Kind of test: T cell co-cultures with variously conditioned DCs. Type of test: cell-based, mouse. The note with it: DCs prepared after the named Step 1 conditioning.
Test [2] concerns CD11c^pos (committed DC) subpopulation. Kind of test: In vivo responses to TLR agonists. More on the design: species or system mouse. The note with it: i.p. treatment. The procedure: FIG. 21 is a bar graph showing in vivo responses to TLR agonists. Mice were injected for 6 days with 10 mcg i.p. rhFlt3-L or no treatment. On the subsequent day, some mice were treated with a single i.p. injection for rmGMCSF 12 mcg. On the subsequent day, some mice were injected with i.p. with 50 mcg CpG (ODN 1826) and 100 mcg pI:C. […] The next day, mice were euthanized and spleens counted and analyzed by FACS for the activation status of the CD11c^pos (committed DC) subpopulation. MHC Class II, CD40, and CD86 (B7.2) were co-analyzed.

Another test deals with STAT5KO BM. Description: Conditioning of STAT5 knockout BM. The class given is cell-based, mouse. Here is the method:
(§2) FIG. 18 illustrates responses of STAT knockout vs. wildtype littermate BM to Flt3-L+IL-6 vs. GMCSF-containing conditioning regiments. […] BM was obtained from KO mice or from matched wildtype LMs, placed in standard Step 1 cultures with Flt3-L+IL-6, Flt3-L+IL-6+GMCSF, or GMCSF alone as conditioning agents, then placed in 48 hr Step 2 cultures with GMCSF+IL-4 with CpG+LPS included during the final 18 hours. […] Data are presented as mean±s.d. of 3 replicates and are representative of three (STAT5KO vs LM) or two (STAT3KO vs LM) independently performed experiments;
(§3) We examined how STAT knockout BM preparations responsed to Flt3L+IL-6 conditioning. […] Therefore, the proliferative and differentiative impacts of Flt3-L+IL-6 conditioning were absolutely STAT3-dependent, whereas final phenotypic maturation and DC1-polarization were at least partially STAT5-dependent.
(§4) We also examined how STATKO BM preparations responded to GMCSF-containing Step 1 regimens (GMCSF alone, Flt3-L+GMCSF, or Flt3-L+GMCSF+IL-6). […] Therefore, all tested GMCSF-containing regimens promoted STAT5-dependent DC differentiation, with later phenotypic maturation and DC1-polarization proving susceptible to inhibition through STAT3.

The next test concerns STAT3KO BM. Kind of test: Conditioning of STAT3 knockout BM. Type of test: cell-based, mouse. The procedure:
as §2, §3, §4

The subject of test [3] is BM cells. Description: Step 2 culture: spontaneous DC maturation without exogenous maturation stimuli. Type of test: cell-based, mouse.
Source text: DC differentiation typically arrests at the immature stage unless DCs are exposed to additional signals such as CD40 ligation, calcium ionophore or TLR agonists (Xu, S. et al. J. Immunol. 171, 2251-2261 (2003); Bonifaz, L. et al. J. Exp. Med. 196, 1627-1638 (2002); Napolitani, G. et al. Nat. Immunol. 6, 769-776 (2005); Czerniecki, B J et al. J. Immunol. 159, 3823-3837 (1997); Mailliard, R B et al. Cancer Res. 64, 5934-5937 (2004)). […] Instead, uniform upregulation of MHC Class II and CD11c ensued within hours of transfer from Flt3L+IL6 into GMCSF, followed by upregulation of CD40, co-stimulatory molecules and CCR7 between 48 and 72 hours of Step 2 culture.
as §1

Another test has as its system conditioned BM cells. Description: Tumor contact during Step 2 culture: DC maturation and IL12 production. Type of test: cell-based, mouse. The procedure: Because DC ingestion of cellular material can induce tolerogenic DCs (Bonifaz, L. et al. J. Exp. Med. 196, 1627-1638 (2002)), we tested the impact of exposing DCs to large volumes of tumor at 16-24 hours of Step 2 culture in GMCSF, to determine tumor's impact on subsequent spontaneous maturation. To cluster plate wells each containing 4 million conditioned BM cells, we added either 4 million freeze-thawed (killed) tumor cells; 3 million irradiated (10,000 cGy), trypan-excluding tumor cells; or 2 million unirradiated, actively proliferating tumor cells. Given the much larger dimensions of viable tumor cells compared to the cultured BM cells, these represented voluminous tumor challenges.
as §1

Test [4] concerns CD34^pos stem cell subpopulation. Description: Step 1 proliferative culture of fresh bone marrow: numeric expansion. The class given is cell-based, mouse. The note with it: fresh mouse BM, 6-7 day Step 1 culture. Here is the method: FIG. 6 is a chart showing numeric expansion resulting from the exposure of bone marrow (BM) suspensions to various factors. BM freshly harvested from C57BL/6 mice was cultured for 6 days in the specific factors, then harvested and counted. Each bar represents 3-11 determinations±s.d., each performed in synchronous comparison to at least five other groups. […] Synergistic expansions reflected a 35-80 fold selective outgrowth of the CD34^pos subpopulation (see FIG. 10);
FIG. 10 is a histogram showing gross numeric expansion of fresh bone marrow (BM) reflective of selective outgrowth of the CD34^pos subpopulation. Freshly prepared mouse BM cell suspensions were stained with FITC-anti-CD34 mAb to enable isolation of CD34^pos and CD34^neg subpopulations by a FACSAria cell sorter. CD34^pos cells initially represented 10.8±7% of the total BM cells. The following groups were then cultured for 6 days in 75 cm^2 flasks, either in Flt3L+SCF+IL6 (striped bars) or in Flt3L+IL6 (solid bars): “Unfractionated BM” (12-15 million per flask); “FACS sorted CD34^neg cells” (12-15 million per flask); “FACS sorted CD34^pos cells” (2-3 million per flask); or “FACS sorted, unirradiated CD34^pos cells plus irradiated (3,000 cGy) CD34^neg cells.” Labels above bars indicate fold numeric expansion during the 6 day culture. […] (Not done=group not done);
We cultured fresh mouse BM in two stages, a 6-7 day proliferative phase (Step 1) and a 2-3 day post-proliferative phase (Step 2). […] FACS sorting experiments confirmed that such expansion represented a net 35-80 fold proliferation of the minor (<12%) CD34^pos stem cell subpopulation, with rapid dropout of the initially CD34^neg subpopulation (FIG. 10). Stem cell proliferation persisted well past day 7 if medium and factors were adequately replenished (not shown).
Single cell suspensions were prepared from the femurs and tibias of healthy mice (Kuriyama, H. et al. Dev. Biol. (Basel) 116, 169-178 (2004)). Following RBC lysis by ammonium chloride, no further processing was performed. […] BM cells were normally cultured for 6-7 days, harvested, counted, and washed twice in PBS prior to initiation of Step 2 cultures.

For test [5] the following is noted: single agent; cited from earlier work.
Another test concerns mouse tumors. The note with it: single agent; cited from earlier work.

Experimental for L-selectin^low T cells: Step 2 DC cultures were performed in rGMCSF and rIL-4 with irradiated MCA-203 cells added at 24 hr and CpG+LPS added at 44 hr. Four hours later, DCs were harvested for co-culture with L-selectin^low T cells freshly harvested from MCA-203 tumor-bearing mice. T cells were co-cultured with DCs at an 8:1 ratio or were activated with immobilized anti-CD3. […] Cultures shown also received exogenous IL-2, IL-7 and IL-15.
Cultures shown also received exogenous IL2, IL7 and IL15.
Conditioned DC precursors were transferred to Step 2 culture, exposed to viable irradiated tumor, optionally further activated with CpG+LPS, then co-cultured with tolerized TDLN T cells from mice bearing the relevant tumor.
Prior to harvest of T cells from tumor-bearing mice, DCs were prepared under various Step 1 conditions in CM; Step 2 was performed in 1% non heat-deactivated mouse serum instead of FCS (CM-MS), during which BM cultures were exposed to viable irradiated tumor cells, then CpG+LPS as denoted in Results. On the day of DC harvest, T cells were freshly harvested from the tumor-draining lymph nodes of mice bearing 12 day tumors. The L-selectin^low (tolerized pre-effector) fraction of T cells was isolated by negative selection as described previously (Peng, L. et al. J. Immunol. 165, 5738-5749 (2000); Wang, L. et al. J. Translational Med. 2, 41 (2004)), and cultured in CM-MS with immobilized anti-CD3 (Peng, L. et al. J. Immunol. 165, 5738-5749 (2000); Wang, L. et al. J. Translational Med. 2, 41 (2004)) or variously conditioned DCs. Beginning on day 2 of T cell culture, some groups also received rhIL2 (24 I.U./m1), or rhIL2, rhIL7 (50 ng/ml) and rhIL15 (5 ng/ml). T cells were harvested for assays and adoptive therapy after 12 days of culture.

B1: granulocyte-macrophage colony stimulating factor (protein, UniProt P01587 18-141, looked up)
Granulocyte-macrophage …: APTRSPITVTRPWKHVEAIKEALNLLDDMPVTLNEEVEVVSNEFSFKKLTCVQTRLKIFEQGLRGNFTKLKGALNMTASYYQTYCPPTPETDCETQVTTYADFIDSLKTFLTDIPFECKKPGQK
notes: murine GMCSF from Immunex
In the case of B1, in the test on BM cells [1], the “Step 2 response to TLR agonists (DC maturation) after Step 1 conditioning” value is “infrequent and/or blunted responses to the TLR agonists”. Further, in the test on BM cells [1] (GMCSF added in Step 2 only), the “effect of GMCSF addition during Step 2 culture” value was “not at all inhibitory”. In the test with BM cells [1] (GMCSF present in Step 1), the “effect of co-conditioning with GMCSF on Flt3L+IL6's licensing impact” value is reported as “abrogated”. Besides, the “effect of conditioned DCs on tolerized T cell co-cultures (proliferation / toxicity)” value with L-selectin^low T cells is listed as “ineffective for propagating the T cells”. The “activation of maturation markers MHC Class II, CD40, CD86 on CD11c^pos spleen cells” value in test [2] is reported as “further enhanced”. Moreover, the “proliferation and DC differentiation of STAT5KO BM” value in the test on STAT5KO BM is “strikingly ineffective for generating DCs”. Further, the “survival / proliferation of STAT3KO BM in Step 1 conditioning” value in the test on STAT3KO BM is “normal proliferation kinetics”. For the same molecule, the “maturational and IL-12p70 response of STAT3KO DCs” value in the test with STAT3KO BM (TLR stimulation, Step 2) was “abnormally heightened maturational and IL-12p70 response to TLR stimulation”. Besides, in the test on BM cells [3], the “effect of GMCSF as Step 1 agent on licensing of spontaneous DC maturation by Flt3L or Flt3L+IL6” value was “fully abrogated”. Also, the “effect of GMCSF as Step 1 agent on licensing of tumor-induced activation by Flt3L+IL6” value in the test on conditioned BM cells is listed as “fully abrogated”.

B2: Flt3 ligand (protein, UniProt P49771 27-235, looked up)
Fms-related tyrosine kinase 3 …: TQDCSFQHSPISSDFAVKIRELSDYLLQDYPVTVASNLQDEELCGGLWRLVLAQRWMERLKTVAGSKMQGLLERVNTEIHFVTKCAFQPPPSCLRFVQTNISRLLQETSEQLVALKPWITRQNFSRCLELQCQPDSSTLPPPWSPRPLEATAPTAPQPPLLLLLLLPVGLLLLAAAWCLHWQRTRRRTPRPGEQVPPVPSPQDLLLVEH
notes: recombinant human Flt3 ligand, gift of Amgen
With B2, the “Step 2 response to TLR agonists (DC maturation) after Step 1 conditioning” value with BM cells [1] is on record as “nearly global licensing for pronounced TLR reactivity”. In addition, in test [4], the “numeric expansion during Step 1 culture” value is listed as “yielded only a fraction of culture input”. Further, in test [5], the “myeloproliferative activity in animals” value was “highly myeloproliferative”. The “spontaneous DC maturation during Step 2 culture” value with BM cells [3] (after Step 1 conditioning, no exogenous maturation stimuli) is “spontaneous tendency to complete DC maturation”.

B3: interleukin-6 (protein, UniProt P08505 25-211, looked up)
Interleukin-6: FPTSQVRRGDFTEDTTPNRPVYTTSQVGGLITHVLWEIVEMRKELCNGNSDCMNNDDALAENNLKLPEIQRNDGCYQTGYNQEICLLKISSGLLEYHSYLEYMKNNLKDNKKDKARVLQRDTETLIHIFNQEVKDLHKIVLPTPISNALLTDKLESQKEWLRTKTIQFILKSLEEFLKVTLRSTRQT
With B3, in the test with mouse tumors, the “therapeutic properties against established mouse tumors” value is listed as “extremely potent therapeutic properties”.

Source of the values: patent US8247227B2, “Dendritic cell precursors” (The Cleveland Clinic Foundation, priority 2006, dated 2012).
